Article PMC8466066, “Searching for Biological Function of the Mysterious PA2504 Protein from Pseudomonas aeruginosa” (International Journal of Molecular Sciences, 2021)

Biological target: the molecule itself
Test: SEC-MALS; purified recombinant PA2504 on a Superdex200 column with HELEOS light scattering instrument; 50 mM Tris-Cl pH 7.0, 300 mM NaCl, 0.5 mL/min

B1: His6-tagged PA2504, recombinant, purified from E. coli (plasmid pQE2504) (natural protein)
chain: MASWTLVDASAIAVRHPYTFYKPDAETIDRVAAGESVKLIFAFDTDNPDAPRAERLWVTVEGIEADGAFSGRLDNYPQYIRDLSLGERIVFEARHIINTEHDPRETPISRYARRCFVTRRVIDEGKAVGYLYREAPEEENDSGWRLMAGDESDDYMNTAGTTAYVSLGSVLNADDSILPLLDAPPGRAFERLADGSFIEVQGPEG
notes: PA2504, uncharacterised protein of Pseudomonas aeruginosa; the PA2504 gene without the start codon cloned into pQE-80L; Dimer by SEC-MALS; No removal of the tag is described; also called His6PA2504; recombinant PA2504 protein; source: E. coli BL21-DE3, purified (Ni-NTA)
Question: For B1, which “stoichiometry N” value is on record?
Answer: 2
